# Assay results reported in FireProtDB (doi:10.1021/bi00118a013).
# B1: Guanyl-specific ribonuclease T1, P00651 (parent)
# chain: MMYSKLLTLTTLLLPTALALPSLVERACDYTCGSNCYSSSDVSTAQAAGYQLHEDGETVGSNSYPHKYNNYEGFDFSVSSPYYEWPILSSGDVYSGGSPGADRVVFNENNQLAGVITHTGASGNNFVECT
# Variants of: B1
# Conditions: Aspergillus oryzae (strain ATCC 42149 / RIB 40), pH 7, Fluorescence, MOPS 30 mM, reversible: yes, structure 1RN1, whole UniProt chain shown
variant,measurement,setting,value
MMYSKLLTLTTLLLPTALALPSLVERACDYTCGSNCYSSSDVATAQAAGYQLHEDGETVGSNSYPHKYNNYEGFDFSVSSPYYEWPILSSGDVYSGGSPGADRVVFNENNQLAGVITHTGASGNNFVECT [S43A],ddG of mutation (higher = less stable),"50.9 °C, Thermal",-0.57 kcal/mol
same,Tm,Thermal,52.6 °C
same,"change of melting temperature, mutant - wild type (higher = more stable)",Thermal,1.7 °C
same,unfolding enthalpy (van 't Hoff),Thermal,109 kcal/mol
MMYSKLLTLTTLLLPTALALPSLVERACDYTCGSNCYSSSDVSTAQAAGYQLHEDGETVGSNSYPHKYNNYEGFDFSVSSPYYEWPILSSGDVFSGGSPGADRVVFNENNQLAGVITHTGASGNNFVECT [Y94F],ddG of mutation (higher = less stable),"25 °C, Urea",1.36 kcal/mol
same,denaturant m value,"25 °C, Urea",1.32 kcal/mol/M
same,denaturant midpoint (higher = more stable),"25 °C, Urea",4.17 M
same,ddG of mutation (higher = less stable),"50.9 °C, Thermal",1.35 kcal/mol
same,Tm,Thermal,46.9 °C
same,"change of melting temperature, mutant - wild type (higher = more stable)",Thermal,-4 °C
same,unfolding enthalpy (van 't Hoff),Thermal,89 kcal/mol
MMYSKLLTLTTLLLPTALALPSLVERACDYTCGSNCYSSSDVSTAQAAGYQLHEDGETVGSNSYPHKYNNYEGFDFSVSSPYYEWPILSSGDVYSGGSPGADRVVFAENNQLAGVITHTGASGNNFVECT [N107A],ddG of mutation (higher = less stable),"25 °C, Urea",2.87 kcal/mol
same,denaturant m value,"25 °C, Urea",1.44 kcal/mol/M
same,denaturant midpoint (higher = more stable),"25 °C, Urea",2.92 M
same,ddG of mutation (higher = less stable),"50.9 °C, Thermal",2.91 kcal/mol
same,Tm,Thermal,42.3 °C
same,"change of melting temperature, mutant - wild type (higher = more stable)",Thermal,-8.6 °C
same,unfolding enthalpy (van 't Hoff),Thermal,91 kcal/mol
MMYSKLLTLTTLLLPTALALPSLVERACDYTCGSNCYSSSDVSTAQAAGYQLHEDGETVGSNSYPHKYNNYEGFDFSVSSPYYEWPILSAGDVYSGGSPGADRVVFNENNQLAGVITHTGASGNNFVECT [S90A],ddG of mutation (higher = less stable),"25 °C, Urea",1.44 kcal/mol
same,denaturant m value,"25 °C, Urea",1.38 kcal/mol/M
same,denaturant midpoint (higher = more stable),"25 °C, Urea",4.11 M
same,ddG of mutation (higher = less stable),"50.9 °C, Thermal",1.56 kcal/mol
